From US20180094045A1 (ASCLEPIUS SUZHOU TECHNOLOGY COMPANY GROUP, published 2018)

Assays:
[1] = biological target: T1, Robo1 (ORIGEN Company, number: TP327713) (UniProt Q9Y6N7 26-1651, limits assumed); experiment: SPR (BIAcore), Robo1 bound on CM5 chip
T1 construct: also called receptor Robo1; target protein Robo1
Experimental: (§1) The affinity constant between the prepared protein and Robo1 was determined by SPR (Surface Plasmon resonance BIAcore200). The Robo1 (ORIGEN Company, number: TP327713) was bound on CM5 chip and used to analysis the interaction between fusion protein Slit2D2-HSA and receptor Robo1. Kinetic measurements were carried out according to the method referred by Canziani et al. (2004, Anal. Biochem. 325:301-307), simultaneously, the same method was applied to measure the affinity between Slit2N protein (Slit2N is a protein at N-terminal of slit2 with a molecular weight of about 120 KDa) and Robo1.

[2] = biological target: T1, Robo1 (ORIGEN Company, number: TP327713); experiment: SPR (BIAcore), Robo1 bound on CM5 chip; column head 'Kd (nM)'
Experimental: as §1

T1 sequence (Q9Y6N7 26-1651 limits assumed): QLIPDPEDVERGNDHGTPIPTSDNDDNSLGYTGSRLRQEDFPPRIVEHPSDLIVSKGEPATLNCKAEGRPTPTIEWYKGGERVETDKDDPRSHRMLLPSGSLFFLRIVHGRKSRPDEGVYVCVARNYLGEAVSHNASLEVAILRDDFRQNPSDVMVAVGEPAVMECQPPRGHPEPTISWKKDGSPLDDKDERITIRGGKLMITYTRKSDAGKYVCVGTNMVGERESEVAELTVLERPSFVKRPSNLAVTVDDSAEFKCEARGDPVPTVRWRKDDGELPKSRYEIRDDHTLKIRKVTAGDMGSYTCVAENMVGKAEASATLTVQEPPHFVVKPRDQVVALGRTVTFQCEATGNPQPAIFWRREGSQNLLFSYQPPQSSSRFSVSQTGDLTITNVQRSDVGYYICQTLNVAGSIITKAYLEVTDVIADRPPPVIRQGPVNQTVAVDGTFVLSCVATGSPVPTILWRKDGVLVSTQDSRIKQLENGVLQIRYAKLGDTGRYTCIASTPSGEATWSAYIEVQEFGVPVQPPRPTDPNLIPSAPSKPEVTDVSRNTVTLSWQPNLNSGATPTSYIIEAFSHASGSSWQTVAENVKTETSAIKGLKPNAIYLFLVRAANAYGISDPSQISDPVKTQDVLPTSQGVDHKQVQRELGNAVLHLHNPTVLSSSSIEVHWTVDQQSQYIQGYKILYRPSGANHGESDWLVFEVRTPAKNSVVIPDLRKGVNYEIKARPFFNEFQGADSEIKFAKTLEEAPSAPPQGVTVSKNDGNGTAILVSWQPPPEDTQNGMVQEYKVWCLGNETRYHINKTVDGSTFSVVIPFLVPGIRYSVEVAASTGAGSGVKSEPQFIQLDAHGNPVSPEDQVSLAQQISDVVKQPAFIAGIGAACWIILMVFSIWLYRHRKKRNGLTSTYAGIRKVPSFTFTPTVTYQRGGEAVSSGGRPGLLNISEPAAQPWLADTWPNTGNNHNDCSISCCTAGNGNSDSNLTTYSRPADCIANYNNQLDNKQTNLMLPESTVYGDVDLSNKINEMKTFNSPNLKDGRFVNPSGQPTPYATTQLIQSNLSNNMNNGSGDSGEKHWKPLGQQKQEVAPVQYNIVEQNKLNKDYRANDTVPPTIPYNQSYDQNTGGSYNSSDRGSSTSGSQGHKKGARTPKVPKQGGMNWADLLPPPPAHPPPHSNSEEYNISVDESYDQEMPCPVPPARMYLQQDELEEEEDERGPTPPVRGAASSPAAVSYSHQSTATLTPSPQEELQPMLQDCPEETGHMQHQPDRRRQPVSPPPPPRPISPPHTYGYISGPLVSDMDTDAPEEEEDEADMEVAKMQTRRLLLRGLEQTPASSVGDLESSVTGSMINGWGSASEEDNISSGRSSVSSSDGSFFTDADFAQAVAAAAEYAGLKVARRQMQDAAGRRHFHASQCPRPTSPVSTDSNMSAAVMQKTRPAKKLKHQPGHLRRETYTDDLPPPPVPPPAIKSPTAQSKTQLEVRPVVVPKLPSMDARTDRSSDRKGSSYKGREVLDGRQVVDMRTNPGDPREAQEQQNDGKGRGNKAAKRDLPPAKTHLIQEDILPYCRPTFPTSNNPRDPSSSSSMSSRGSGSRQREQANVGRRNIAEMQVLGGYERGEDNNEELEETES

kon [1]: 744000 M⁻¹ s⁻¹
Kd [2]: 4.5 nM
B1: Slit2N protein (ligand, UniProt O94813 31-1121, looked up)
chain: QCSCSGSTVDCHGLALRSVPRNIPRNTERLDLNGNNITRITKTDFAGLRHLRVLQLMENKISTIERGAFQDLKELERLRLNRNHLQLFPELLFLGTAKLYRLDLSENQIQAIPRKAFRGAVDIKNLQLDYNQISCIEDGAFRALRDLEVLTLNNNNITRLSVASFNHMPKLRTFRLHSNNLYCDCHLAWLSDWLRQRPRVGLYTQCMGPSHLRGHNVAEVQKREFVCSGHQSFMAPSCSVLHCPAACTCSNNIVDCRGKGLTEIPTNLPETITEIRLEQNTIKVIPPGAFSPYKKLRRIDLSNNQISELAPDAFQGLRSLNSLVLYGNKITELPKSLFEGLFSLQLLLLNANKINCLRVDAFQDLHNLNLLSLYDNKLQTIAKGTFSPLRAIQTMHLAQNPFICDCHLKWLADYLHTNPIETSGARCTSPRRLANKRIGQIKSKKFRCSAKEQYFIPGTEDYRSKLSGDCFADLACPEKCRCEGTTVDCSNQKLNKIPEHIPQYTAELRLNNNEFTVLEATGIFKKLPQLRKINFSNNKITDIEEGAFEGASGVNEILLTSNRLENVQHKMFKGLESLKTLMLRSNRITCVGNDSFIGLSSVRLLSLYDNQITTVAPGAFDTLHSLSTLNLLANPFNCNCYLAWLGEWLRKKRIVTGNPRCQKPYFLKEIPIQDVAIQDFTCDDGNDDNSCSPLSRCPTECTCLDTVVRCSNKGLKVLPKGIPRDVTELYLDGNQFTLVPKELSNYKHLTLIDLSNNRISTLSNQSFSNMTQLLTLILSYNRLRCIPPRTFDGLKSLRLLSLHGNDISVVPEGAFNDLSALSHLAIGANPLYCDCNMQWLSDWVKSEYKEPGIARCAGPGEMADKLLLTTPSKKFTCQGPVDVNILAKCNPCLSNPCKNDGTCNSDPVDFYRCTCPYGFKGQDCDVPIHACISNPCKHGGTCHLKEGEEDGFWCICADGFEGENCEVNVDDCEDNDCENNSTCVDGINNYTCLCPPEYTGELCEEKLDFCAQDLNPCQHDSKCILTPKGFKCDCTPGYVGEHCDIDFDDCQDNKCKNGAHCTDAVNGYTCICPEGYSGLFCEFSPPMVLPR
notes: domain: protein at N-terminal of slit2 with a molecular weight of about 120 KDa; Comparator in the SPR experiment
